Data on one molecule can be found in US6740739B1, “Substitutional variants of APO-2 ligand” (Genentech, Inc., priority 1998, dated 2004).

Holding throughout (assay type): cell-based, human
Assay [1] relates to 9D cells. Put plainly: Apoptosis by FACS (PI / FITC-annexin V). The settings on record: Apo-2 ligand 3 μg/ml, 24 hours, control 22.5. How it is done: Apoptotic activity of purified, soluble Apo-2 ligand (described in Example 3) was examined using several human lymphoid cell lines. In a first study, the effect of Apo-2 ligand on 9D cells (Genentech, Inc.), derived from Epstein-Barrvirus (EBV)-transformed human peripheral blood B cells, was examined. The 9D cells (5×10^4 cells/well in RPMI 1640 medium plus 10% fetal calf serum) were incubated for 24 hours with either a media control, Apo-2 ligand (3 μg/ml, prepared as described in Example 3 above), or anti-Apo-1 monoclonal antibody, CH11 (1 μg/ml) [described by Yonehara et al., J. Exp. Med., 169:1747-1756 (1989); commercially available from Medical and Biological Laboratories Co.]. […]
The effects of the Apo-2 ligand on the 9D cells, as well as on Raji cells (human Burkitt's lymphoma B cell line, ATCC CCL 86) and Jurkat cells (human acute T cell leukemia cell line, ATCC TIB 152) were further analyzed by FACS. […]
The 9D cells (FIG. 2B), Raji cells (FIG. 2C), and Jurkat cells (FIG. 2D) were incubated (1×10^6 cells/well) for 24 hours with a media control (left panels), Apo-2 ligand (3 μg/ml, prepared as described in Example 3) (center panels), or anti-Apo-1 ligand antibody, CH11 (1 μg/ml) (right panels). The cells were then washed, stained with PI and with fluorescein thiocyanate (FITC)-conjugatedannexin V (purchased from Brand Applications) and analyzed by flow cytometry. […]

Assay [2] deals with ME-180. Put plainly: Apoptosis by FACS, non-lymphoid tumor cell lines. The following applies: Apo-2 ligand 3 μg/ml, 24 hours, control 8.6. How it is done: (§1) The effects of the Apo-2 ligand on the 9D cells, as well as on Raji cells (human Burkitt's lymphoma B cell line, ATCC CCL 86) and Jurkat cells (human acute T cell leukemia cell line, ATCC TIB 152) were further analyzed by FACS. The FACS analysis was conducted, using established criteria for apoptotic cell death, namely, the relation of fluorescence staining of the cells with two markers: (a) propidium iodide (“PI”) dye, which stains apoptotic but not live cells, and (b) a fluorescent derivative of the protein, annexin V, which binds to the exposed phosphatidylserine found on the surface of apoptotic cells, but not on live cells [Darzynkiewicz et al., Methods in Cell Biol., 41:15-38 (1994); Fadok et al., J. Immunol., 148:2207-2216 (1992); Koopman et al., Blood, 84:1415-1420 (1994)].
(§2) The 9D cells (FIG. 2B), Raji cells (FIG. 2C), and Jurkat cells (FIG. 2D) were incubated (1×10^6 cells/well) for 24 hours with a media control (left panels), Apo-2 ligand (3 μg/ml, prepared as described in Example 3) (center panels), or anti-Apo-1 ligand antibody, CH11 (1 μg/ml) (right panels). The cells were then washed, stained with PI and with fluorescein thiocyanate (FITC)-conjugatedannexin V (purchased from Brand Applications) and analyzed by flow cytometry. Cells negative for both PI and annexin V staining (quadrant 3) represent live cells; PI-negative, annexin V-positive staining cells (quadrant 4) represent early apoptotic cells; PI-positive, annexin V-positive staining cells (quadrant 2) represent primarily cells in late stages of apoptosis.
(§3) The effect of Apo-2 ligand on human non-lymphoid tumor cell lines was examined using the following cell lines: HeLa (derived from human cervical carcinoma, ATCC CCL 22); ME-180 (derived from human cervical carcinoma, ATCC HTB 33); MCF7 (derived from human breast carcinoma, ATCC HTB 22); U-937 (derived from human hystiocytic lymphoma, ATCC CRL 1593); A549 (derived from human lung carcinoma, ATCC CCL 185); and 293 (derived from an adenovirus-transformed human embryonic kidney cells, ATCC CCL 1573).
(§4) In the assay, 1×10^6 cells of each cell line were incubated for 24 hours with a media control, Apo-2 ligand (3 μg/ml, prepared as described in Example 3), or anti-Apo-1 monoclonal antibody, CH 11 (1 μg/m1). Following the incubation, apoptosis was measured by FACS analysis, as described in Example 4.
A general note: In flow cytometry, cells or beads pass a laser one at a time.

The subject of assay [3] is U-937. Put plainly: Apoptosis by FACS, non-lymphoid tumor cell lines. The following applies: Apo-2 ligand 3 μg/ml, 24 hours, control 3.6. How it is done:
as §1, §2, §3, §4

The test system of assay [4] is MCF7. Briefly: Apoptosis by FACS, non-lymphoid tumor cell lines. The following applies: Apo-2 ligand 3 μg/ml, 24 hours, control 39.9. How it is done: as §1, §2, §3, §4
In assay [5] the test system is HeLa. Put plainly: Apoptosis by FACS, non-lymphoid tumor cell lines. The following applies: Apo-2 ligand 3 μg/ml, 24 hours, control 5.3. How it is done:
as §1, §2, §3, §4

Assay [6] deals with 293. Briefly: Apoptosis by FACS, non-lymphoid tumor cell lines. The following applies: Apo-2 ligand 3 μg/ml, 24 hours, control 12.3. How it is done: as §1, §2, §3, §4
Assay [7] relates to A549. Put plainly: Apoptosis by FACS, non-lymphoid tumor cell lines. The following applies: Apo-2 ligand 3 μg/ml, 24 hours, control 16.5. How it is done:
as §1, §2, §3, §4

The test system of assay [8] is T lymphocytes. Put plainly: Apoptosis by FACS in peripheral blood T cells. The settings on record: Apo-2 ligand 3 μg/ml, 3 days, mean ±SE. How it is done: Peripheral blood mononuclear cells (“PBMC&”) were isolated from the blood of human donors by Ficoll density gradient centrifugation using Lymphocyte Separation Medium (LSM®, Organon Teknika). An isolated population of T cells was prepared from the PBMC by removal of B cells through surface Ig binding to an anti-Ig column and removal of monocytes through Fc receptor binding to an Ig column (R & D Systems). An isolated population of B cells was prepared from the PBMC by complement-mediatedelimination of T cells reacted with the anti-CD3 antibody produced by the OKT3 myeloma (ATCC, CRL 8001) and of monocytes reacted with a monocyte-specific antibody produced by the 4F2C13 hybridoma (ATCC, HB 22). Additional monocyte removal was accomplished by adherence to plastic.
The freshly isolated peripheral blood B or T cells (1×10^6 cells/well) were cultured for 3 days in the presence of a media control or Apo-2 ligand (3 μg/ml, prepared as described in Example 3). For activation, B cells were treated simultaneously with lipopolysaccharide (“LPS”, 1 μg/ml), and T cells were treated with phorbol myristate acetate (“PMA”, 10 ng/ml) plus ionomycin (1 μg/ml) (Sigma). For interleukin-2 (“IL-2”) pretreatment, T cells were cultured for 3-5 days in the presence of IL-2 (50 U/ml) (Genzyme) before exposure to Apo-2 ligand. Apoptosis was determined using FACS analysis essentially as described above in Example 4. However, B cells were gated by anti-CD19/CD20 antibodies (Jackson Immunoresearch), and T cells were gated by anti-CD4/CD8 antibodies (Jackson lmmunoresearch). The results are shown in Table 2 below, representing means ±SE of independent experiments [B lymphocytes—9 experiments; T lymphocytes—8 experiments; T lymphocytes plus IL-2-5 experiments], in which 50,000 cells were analyzed per data point. Statistical analysis was performed using the student t-test. In Table 2, a=p<0.05 and b=p<0.02 relative respective control.

B1: Apo-2L: purified soluble His10-tagged human Apo-2 ligand, residues 114-281, from baculovirus-infected Sf9 cells (Example 3); used in Examples 4-14 (protein)
chain: MGHHHHHHHHHHSSGHIDDDDKHMVRERGPQRVAAHITGTRGRSNTLSSPNSKNEKALGRKINSWESSRSGHSFLSNLHLRNGELVIHEKGFYYIYSQTYFRFQEEIKENTKNDKQMVQYIYKYTSYPDPILLMKSARNSCWSKDAEYGLYSIYQGGIFELKENDRIFVSVTNEHLIDMDHEASFFGAFLVG
As for B1, the “% apoptotic cells” value in assay [1] is 92.4%; in assay [2] it was 80.7%; in assay [3] it was 62.3%; in assay [4], 47.3%; in assay [5], 18.6%; in assay [6], 12.2%. Further, in assay [7], the “% apoptotic cells” value is 74.6%. In addition, the “% apoptolic cells” value in assay [8] (IL-2 pretreatment (50 U/ml, 3-5 days), control 13.7 ± 1.2, b=p<0.02) is listed as 34.5 ± 4.8^b %; in assay [8] (PMA/ionomycin, control 40.3 ± 4.4, a=p<0.05), 54.2 ± 3.3^a %; in assay [8] (treatment none, control 6.3 ± 0.6), 8.2 ± 0.8%.
